Test results from patent publication US6660467 (INSTITUTO DI RICERCHE DI BIOLOGIA MOLECOLARE P ANGELETTI S …, dated 2003).
Changes are numbered by the printed parent chain.

T1: membrane-bound CNTFR (m-CNTFR), full-length human CNTFR (amino acids 1-372) (human, UniProt P26992 23-342)
T1 construct: whole, on cells; also called full-length CNTFR; CNTFR on HepG2/CNTFR cells
T1 sequence (looked up): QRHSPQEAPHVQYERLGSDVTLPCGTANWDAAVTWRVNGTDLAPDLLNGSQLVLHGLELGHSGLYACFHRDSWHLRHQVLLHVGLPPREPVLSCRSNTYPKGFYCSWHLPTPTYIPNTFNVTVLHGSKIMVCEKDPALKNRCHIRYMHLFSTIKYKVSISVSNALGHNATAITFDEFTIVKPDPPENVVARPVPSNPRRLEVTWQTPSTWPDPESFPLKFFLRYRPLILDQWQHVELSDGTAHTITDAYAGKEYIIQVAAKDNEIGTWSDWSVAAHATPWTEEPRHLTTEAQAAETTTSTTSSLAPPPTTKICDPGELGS

T2: soluble CNTFR (s-CNTFR) (UniProt P26992 23-346, limits assumed)
T2 sequence (looked up): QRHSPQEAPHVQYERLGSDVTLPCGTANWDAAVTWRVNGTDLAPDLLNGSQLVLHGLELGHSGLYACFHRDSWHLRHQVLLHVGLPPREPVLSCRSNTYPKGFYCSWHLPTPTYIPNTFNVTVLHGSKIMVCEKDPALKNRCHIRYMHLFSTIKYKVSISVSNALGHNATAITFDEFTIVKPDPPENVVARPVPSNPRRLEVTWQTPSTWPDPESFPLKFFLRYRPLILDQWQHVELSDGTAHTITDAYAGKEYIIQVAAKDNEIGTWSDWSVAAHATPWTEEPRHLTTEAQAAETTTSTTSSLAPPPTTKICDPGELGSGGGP

T3: solid phase-immobilized CNTFR (UniProt P26992 23-342, limits assumed)
T3 construct: also called CNTF alpha-receptor
T3 sequence (looked up): T1 sequence (looked up)

B1: human ciliary neurotrophic factor, wild type (hCNTF; SEQ ID NO: 1) (ligand)
chain: MAFTEHSPLTPHRRDLCSRSIWLARKIRSDLTALTESYVKHQGLNKNINLDSADGMPVASTDQWSELTEAERLQENLQAYRTFHVLLARLLEDQQVHFTPTEGDFHQAIHTLLLQVAAFAYQIEELMILLEYKIPRNEADGMPINVGDGGLFEKKLWGLKVLQELSQWTVRSIHDLRFISSHQTGIPARGSHYIANNKKM
notes: also called human CNTF; wild-type CNTF
B2: Thr169Ile/His174Ala/human CNTF (IA-CNTF; SEQ ID NO:2) (ligand)
chain: B1 chain with T169I, H174A
notes: Produced in E. coli, purified by reverse-phase HPLC; also called Thr169Ile/His174Ala/hCNTF

Legend:
[1] = target: T1, membrane-bound CNTFR (m-CNTFR), …; test: CNTF surface binding on HepG2 cells stably transfected with full-length human CNTFR
[2] = target: T2, soluble CNTFR (s-CNTFR); test: cell-based or functional assay
[3] = target: T3, solid phase-immobilized CNTFR; test: competition with biotinylated CNTF for binding to solid phase-immobilized CNTFR
Method: The CNTFR binding activity of CNTF and IA-CNTF was determined by measuring the ability of the proteins to compete with biotinylated CNTF for binding to solid phase-immobilized CNTFR, using a previously described procedure (Saggio et al., 1994; Saggio et al., 1995).

Binder | binding result [1] | stimulation of haptoglobin production in HepG2 cells at a subsaturating concentration of s-CNTFR; EC50 relative to CNTF [2] | fold reduction of affinity against wild-type CNTF [3] [fold]
B1 | binds |  | 
B2 |  | 5 fold (EC50 relative to CNTF) | 15
